Measurements reported in US20040214763A1 (AVENTIS PHARMA S A, published 2004).
Ends that are not written are not given here.

T1: p38 protein (product of the human gene JTV1) fused to the transactivating domain of GAL4, from library … (yeast; human, UniProt Q13155 1-320, limits assumed)
T1 construct: also called plasmid isolated during the screening of the two-hybrid library; fragment corresponding to the p38 protein
T1 sequence: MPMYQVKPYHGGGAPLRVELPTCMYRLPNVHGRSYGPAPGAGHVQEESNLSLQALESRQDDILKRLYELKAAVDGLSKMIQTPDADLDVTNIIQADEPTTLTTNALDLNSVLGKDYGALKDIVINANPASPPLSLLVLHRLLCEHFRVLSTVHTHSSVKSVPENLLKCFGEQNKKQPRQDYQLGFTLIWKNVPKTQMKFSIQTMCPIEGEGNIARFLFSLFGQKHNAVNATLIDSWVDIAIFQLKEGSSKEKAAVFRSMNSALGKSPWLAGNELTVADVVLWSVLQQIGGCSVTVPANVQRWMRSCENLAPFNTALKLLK

B1: cytoplasmic domain of the APP protein fused to LexA, expressed from pLex9-cAPP (other, UniProt P05067 723-770, looked up)
chain: LKKKQYTSIHHGVVEVDAAVTPEERHLSKMQQNGYENPTYKFFEQMQN
modifications: also: fused to LexA
notes: domain: cytoplasmic domain; Control bait in the two-hybrid specificity test; also called pLex-cAPP; not shown: bacterial repressor LexA as encoded by vector pLex9 (pBTM116)

Key:
[1] = biological target: p38 protein fused with an N-terminal myc epitope, expressed from pcDNA3-myc-P38 (human) (UniProt Q13155); test: cell-based or functional assay
[2] = biological target: T1, p38 protein (product of the human gene …); test: yeast two-hybrid, b-Gal activity assay in strain L40
Method: A sheet of nitrocellulose is pre-placed on the Petri dish containing the separated yeast clones. This sheet is then immersed in liquid nitrogen for 30 seconds in order to rupture the yeasts and thus to release the b-galactosidase activity. After thawing, the sheet of nitrocellulose is placed, colonies facing upwards, in another Petri dish containing a Whatman paper presoaked in 1.5 ml of PBS solution (60 mM Na2HPO4, 40 mM NaH2PO4, 10 mM KCl, 1 mM MgSO4, pH 7) containing 15 μl of X-Gal (5-bromo-4-chloro-3-indolyl-b-D-galactoside) containing 40 mg/ml of N,N-dimethylformamide. The dish is then placed in an incubator at 37° C. The assay is deemed positive when the colonies on the membrane turn blue after 12 hours.
In order to determine the specificity of interaction between the fragment corresponding to the p38 protein and the central region of parkin, we carried out a two-hybrid test for specific interaction with other, non-relevant proteins. To carry out this test, we transformed the L40 strain with the control plasmids plex9-cAPP or pLex9-HaRasVal12 in place of the plasmid pLex9-Parkin (135-290), encoding, respectively, the cytoplasmic domain of APP or the HaRasVal12 protein, which are fused to the DNA-binding domain of LexA and with the plasmid isolated during the screening of the two-hybrid library. […]

Molecule	proportion of transfected cells exhibiting p38 aggregates [1]	binding result [2]
human parkin stably overexpressed in the SH-SY5Y-VI clone (from UniProt O60260 1-465) (enzyme)	8%	
B1		no binding
